Consider five molecules from patent publication US20230220038A1, “BRI2 BRICHOS DOMAIN FOR DELIVERY OF PROTEINS INTO CNS NEURONS” (ALPHABETA AB, priority 2021, published 2023).

In data set [1] the test system is SH-SY5Y cells. Briefly: Cell uptake by western blot, SH-SY5Y. Type of data set: cell-based, human. The conditions noted are these: 24 h incubation, western blot band intensities of cell lysate. (In general: In western blotting, separated proteins are transferred to a membrane and probed.)
Data set [2] concerns hCMEC/D3 cells.
Protocol: hCMEC/D3 cells (MilliporeSigma, Burlington, Mass.) were cultivated in EndoGRO-MV Complete Media (MilliporeSigma, Burlington, Mass.), supplemented with 1 ng/ml recombinant human fibroblast growth factor basic (FGF-2, Gibco, Invitrogen, Waltham, Mass.) and penicillin-streptomycin (100 IU/ml, 100 μg/ml, Gibco, Thermo Fisher Scientific, Waltham, Mass.) in T75 tissue culture flasks (TC-coated, DeltaLab, Spain) coated with 5-10 μg/cm^2 rat tail collagen type I (MilliporeSigma, Burlington, Mass.).
(§1) Cell viability was assessed by tetrazolium-based Thiazolyl Blue Tetrazolium Bromide (MTT) assay. For the MTT assay, 50 000 cells/cm^2 were seeded onto clear 96-well plates (TC, Cellstar, Greiner Bio-One, Austria) and grown until confluent, after which the cells were treated with the rh BRICHOS domains in 8 replicates for 24 h in a humidified atmosphere (5% CO2/95% air) at 37° C. Treated cells were incubated with 0.5 mg/ml MTT (Sigma-Aldrich, St. Louis, Mo.) solution in FBS-free cell media for 4 h in a humidified atmosphere (5% CO^2/95% air) at 37° C. The MTT solution was removed and the formazan crystals were dissolved in Dimethyl sulfoxide (DMSO, Sigma-Aldrich, St. Louis, Mo.) and incubated with shaking for 15 min. Absorbance was measured at 570 nm using a FLUOstar OPTIMA microplate reader (BMG Lab Tech, Germany). Untreated cells were used as positive control, and media without cells was used as a negative control. Also 2 μM Staurosporine from Streptomyces sp. (SP, Sigma-Aldrich, St. Louis, Mo.) was used as a negative control.
Data set [3] concerns SH-SY5Y cells.
Protocol: Human neuroblastoma (SH-SY5Y) cell line (ATCC, Manassas, Va.) was grown in Dulbecco's Modified Eagle's Medium (DMEM, PAN-Biotech, Germany) with 4.5 g/L glucose, glutamine (2 mM) and 3.7 g/L NaHCO3, supplemented with 10% Fetal Bovine Serum (FBS, Sera Plus, PAN-Biotech, Germany) and penicillin-streptomycin (100 IU/ml, 100 μg/ml) in TC-coated T75 tissue culture flasks.
as §1
For data set [4], the system named is hCMEC/D3 cells. Briefly: Cell uptake by western blot, hCMEC/D3. Type of data set: cell-based, human. The conditions noted are these: hCMEC/D3, 2 h and 24 h, western blot of cell lysate. How it is done:
Once confluent, the hCMEC/D3 cells were treated with 1 μM rh Bri2 BRICHOS monomers, oligomers or proSP-C monomers for 2 h and 24 h. […] Untreated cells were used as control. After the treatment, the cells were lysed as described for the HEK-293 cells.

The next data set relates to hCMEC/D3 monolayer. How it is done: For the preparation of the hCMEC/D3 cell monolayers, transwell ethylene terephthalate (PET) membrane inserts (24-well, clear, pore size 0.4 μm, CellQART, SABEU GmbH & Co. KG, Germany) were coated with rat tail type I collagen (150 μg/ml in 1× Dulbecco's Phosphate-buffered saline pH 7.4, 1×DPBS, Gibco, Thermo Fisher Scientific, Waltham, Mass.) for 2 h at 37° C. […] Media was changed every second day and the cell monolayer was established by day 6.
Experiments were conducted on culture day 6 by adding different BRICHOS protein constructs, or relevant controls to the apical side of the hCMEC/D3 monolayer. […] After the incubation, medium on the apical and basolateral sides of the monolayer was removed and analyzed by Western blotting and the band intensities measured by ImageJ. […] For mCherry and mCherry-Bri2 BRICHOS monomers, fluorescence intensity of the apical and basolateral medium was recorded at λex 570 nm and λem 610 nm, after which the cells were fixed and analyzed by fluorescence microscopy to analyse the uptake of mCherry or mCherry-Bri2 BRICHOS into cells.
FITC fluorescence was measured at λex 492 nm and λem 518 nm. Insulin permeability was determined by western blot and an anti-Insulin monoclonal primary antibody (Sigma, St. Louis, Mo.) at 1:1000 dilution. […]

The subject of the next data set is wild type mice. The conditions noted are these: mouse, in vivo, iv, 10 mg/kg. As for the experimental part: Two different types of commercially available microbubbles, either Definity® (Lantheus Medical Imaging, MA, USA) or SonoVue® (Bracco, Milan, Italy) were administered at a dose of 5 μl/g body weight. For one part of the study (FIG. 3A), a total of […] mice were divided into four groups that received, respectively, i.v. injections of microbubbles and PBS (n=4), microbubbles and 1 (n=4), 10 (n=6) or 20 (n=4) mg/kg body weight of rh Bri2 BRICHOS-AU1 (SEQ ID NO: 11). In the second part of the study (FIG. 3B), a total of 3 mice were administered 20 mg/kg rh Bri2 BRICHOS-mCherry (SEQ ID NO: 12) (n=1) or microbubbles+20 mg/kg rh Bri2 BRICHOS-mCherry (n=2) intravenously. […]
96-well plates (Nunc MicroWell™) were coated with anti Bri2 BRICHOS capture antibody diluted in coating buffer (50 mM carbonate pH 9.6) and incubated overnight at 4° C. […] The reaction was stopped by adding stop solution for TMB substrates (Thermo Fisher) and absorbance was measured at 450 nm, using the values for brain homogenates from the non-treated mouse as blank. […]
Calculation of concentrations and total amounts of rh Bri2 BRICHOS-AU1 in each brain hemisphere was assessed by assuming a brain density of […], an average brain hemisphere weight of 225 mg and average of total protein in brain hemisphere homogenates of 25.6 mg.

B1: Bri2 BRICHOS monomers: recombinant human Bri2 BRICHOS (113-231) wild-type, monomeric species (SEQ ID NO: 2) (protein, listed as Homo sapiens)
chain: QTIEENIKIFEEEEVEFISVPVPEFADSDPANIVHDFNKKLTAYLDLNLDKCYVIPLNTSIVMPPRNLLELLINIKAGTYLPQSYLIHEHMVITDRIENIDHLGFFIYRLCHDKETYKL
With B1, the “cell uptake, result in words” value is listed as “linear uptake” with SH-SY5Y cells [1] and “taken up” in the data set with hCMEC/D3 cells [4]. Further, the “toxicity / cell mitochondrial activity, result in words” value (from here on “toxicity / cell mitochondrial activity”) with hCMEC/D3 cells [2] and in the data set on SH-SY5Y cells [3] was “no toxicity” in each case.

B2: NT-Bri2 BRICHOS: rh fusion protein: NT* solubility tag followed by human Bri2 residues 113-231 (protein, UniProt Q9Y287 113-231, looked up, fragment)
chain: QTIEENIKIFEEEEVEFISVPVPEFADSDPANIVHDFNKKLTAYLDLNLDKCYVIPLNTSIVMPPRNLLELLINIKAGTYLPQSYLIHEHMVITDRIENIDHLGFFIYRLCHDKETYKL
modifications: NT* spider silk solubility tag
For B2, in the data set on hCMEC/D3 monolayer, the “hCMEC/D3 monolayer permeability, result in words” value is reported as “only the monomers show permeability”.

B3: Bri2 BRICHOS crude: recombinant human Bri2 BRICHOS (113-231) wild-type, crude solution (protein, UniProt Q9Y287 113-231, looked up, fragment)
chain: QTIEENIKIFEEEEVEFISVPVPEFADSDPANIVHDFNKKLTAYLDLNLDKCYVIPLNTSIVMPPRNLLELLINIKAGTYLPQSYLIHEHMVITDRIENIDHLGFFIYRLCHDKETYKL
For B3, the “toxicity / cell mitochondrial activity” value in the data set on hCMEC/D3 cells [2] and in the data set on SH-SY5Y cells [3] was “slight decrease in the cell mitochondrial activity” each time.

B4: Bri2 BRICHOS oligomers: recombinant human Bri2 BRICHOS (113-231) wild-type, oligomeric species (protein, UniProt Q9Y287 113-231, looked up, fragment)
chain: QTIEENIKIFEEEEVEFISVPVPEFADSDPANIVHDFNKKLTAYLDLNLDKCYVIPLNTSIVMPPRNLLELLINIKAGTYLPQSYLIHEHMVITDRIENIDHLGFFIYRLCHDKETYKL
modifications: oligomers
notes: recombinant human Bri2 BRICHOS (113-231) wild-type, oligomeric species
As to B4, the “cell uptake, result in words” value was “detected in the cell lysate to a lesser degree” with SH-SY5Y cells [1] and “seem not to be taken up” in the data set on hCMEC/D3 cells [4]. The “toxicity / cell mitochondrial activity” value in the data set with hCMEC/D3 cells [2] and with SH-SY5Y cells [3] was “slight decrease in the cell mitochondrial activity” in each case.

B5: rh Bri2 BRICHOS-AU1: Rh Bri2 BRICHOS domain, residues 113-231 of Bri2, linked to an AU1 tag at the C-terminal end (SEQ ID NO: 11) (protein, listed as Homo sapiens)
chain: GSQTIEENIKIFEEEEVEFISVPVPEFADSDPANIVHDFNKKLTAYLDLNLDKCYVIPLNTSIVMPPRNLLELLINIKAGTYLPQSYLIHEHMVITDRIENIDHLGFFIYRLCHDKETYKLDTYRYI
modifications: DOMAIN 3..121 Rh Bri2 BRICHOS domain; DOMAIN 122..127 AU1 tag
With B5, the “percent of the total amount administered detected in the brain” value in the data set on wild type mice is given as 1%.
